Test results: article doi:10.1101/543413

Experiments:
Experiment in all cases: MST
[1] = molecular target: R663H human β-cardiac sS1 (human) (UniProt P12883)
[2] = molecular target: WT human β-cardiac sS1 (short S1) (human) (UniProt P12883)
[3] = molecular target: R663H human β-cardiac 25-hep HMM (UniProt P12883)

Row | Kd [1] [µM] | Kd [2] [µM] | Kd [3] [µM] | Substance
1 | 50 | 67 |  | proximal S2 of human β-cardiac myosin (from UniProt P12883 1-1935) (domain or fragment)
2 |  |  | 0.9 | C0-C7 fragment of myosin binding protein-C (MyBP-C) (domain or fragment)
